{"source": "paper PMC5437227", "key": {"[1]": {"target": "pH-GluA1 S845A phosphodeficient mutant (UniProt P19490)", "experiment": "co-IP; HEK293 cells co-transfected with HA-Nedd4-1 and pH-GluA1 constructs, lysed 48 h later (1% Triton X-100 lysis buffer with 10 mM N-ethylmaleimide); immunoprecipitation with anti-GFP antibodies on protein A-Sepharose overnight at 4 °C; blots with anti-HA and anti-GluA1; bound HA-Nedd4-1 quantified and normalized to the wild-type control"}, "[2]": {"target": "pH-GluA1 S845D phosphomimetic mutant (UniProt P19490)", "experiment": "co-IP; HEK293 cells co-transfected with HA-Nedd4-1 and pH-GluA1 constructs, lysed 48 h later (1% Triton X-100 lysis buffer with 10 mM N-ethylmaleimide); immunoprecipitation with anti-GFP antibodies on protein A-Sepharose overnight at 4 °C; blots with anti-HA and anti-GluA1; bound HA-Nedd4-1 quantified and normalized to the wild-type control"}, "[3]": {"target": "pH-GluA1 S831A phosphodeficient mutant (UniProt P19490)", "experiment": "co-IP; HEK293 cells co-transfected with HA-Nedd4-1 and pH-GluA1 constructs, lysed 48 h later (1% Triton X-100 lysis buffer with 10 mM N-ethylmaleimide); immunoprecipitation with anti-GFP antibodies on protein A-Sepharose overnight at 4 °C; blots with anti-HA and anti-GluA1; bound HA-Nedd4-1 quantified and normalized to the wild-type control"}, "[4]": {"target": "pH-GluA1 S831D phosphomimetic mutant (UniProt P19490)", "experiment": "co-IP; HEK293 cells co-transfected with HA-Nedd4-1 and pH-GluA1 constructs, lysed 48 h later (1% Triton X-100 lysis buffer with 10 mM N-ethylmaleimide); immunoprecipitation with anti-GFP antibodies on protein A-Sepharose overnight at 4 °C; blots with anti-HA and anti-GluA1; bound HA-Nedd4-1 quantified and normalized to the wild-type control"}, "[5]": {"target": "pH-GluA1 S845D phosphomimetic mutant (UniProt P19490)"}}, "data": [{"substance": "HA-Nedd4-1 (from UniProt P46934 1-1319) (enzyme)", "values": [{"measurement": "HA-Nedd4-1 binding, percent of WT control (% of WT control)", "setting": "[1]", "value": 90.9}, {"measurement": "HA-Nedd4-1 binding, percent of WT control (% of WT control)", "setting": "[2]", "value": 53.2}, {"measurement": "HA-Nedd4-1 binding, percent of WT control (% of WT control)", "setting": "[3]", "value": 74.1}, {"measurement": "HA-Nedd4-1 binding, percent of WT control (% of WT control)", "setting": "[4]", "value": 112}, {"measurement": "AMPA-induced ubiquitination of pH-GluA1 S845D in cortical neurons (IP: GFP, blot for ubiquitin), relative to wild type (% of WT control)", "setting": "[5]", "value": 65.2}]}]}
